Assay results: PMC10279719
Blank lines part the entries; values can stand above or below the substance they belong to.

Tests used:
[1] = biological target: PEAK3 tandem-pS69 peptide (residues 54-74) (human); assay: ITC; binary; peptide in the cell (20 µM, or 16.8 µM after a buffer titration), protein in the syringe; 25 °C, 20 mM HEPES pH 7.4, 150 mM NaCl, 1 mM TCEP; single binding site model
[2] = biological target: PEAK3tandem-pS69 peptide (residues 54-74) (human); assay: ITC; 25 °C, peptide (20 µM) in the cell, protein in the syringe, sequential titrations; 20 mM HEPES pH 7.4, 150 mM NaCl, 1 mM TCEP; single binding site model
[3] = biological target: PEAK3^tandem-pS69 peptide (residues 54–74, phosphorylated at S69) (human); assay: ITC; binary; peptide (20 μM) in the cell, protein in the syringe (14-3-3ɣ 200 μM; CrkII^NSH3 140 or 400 μM); 25 °C, 20 mM HEPES pH 7.4, 150 mM NaCl, 1 mM TCEP; single site model
[4] = biological target: PEAK3 SH2-pY peptide 23-29 (Homo sapiens) (UniProt Q6ZS72); assay: ITC; conditions: cited from earlier work
Chain of PEAK3 SH2-pY peptide 23-29 (Homo sapiens) (Q6ZS72 whole entry, looked up, tested part not stated): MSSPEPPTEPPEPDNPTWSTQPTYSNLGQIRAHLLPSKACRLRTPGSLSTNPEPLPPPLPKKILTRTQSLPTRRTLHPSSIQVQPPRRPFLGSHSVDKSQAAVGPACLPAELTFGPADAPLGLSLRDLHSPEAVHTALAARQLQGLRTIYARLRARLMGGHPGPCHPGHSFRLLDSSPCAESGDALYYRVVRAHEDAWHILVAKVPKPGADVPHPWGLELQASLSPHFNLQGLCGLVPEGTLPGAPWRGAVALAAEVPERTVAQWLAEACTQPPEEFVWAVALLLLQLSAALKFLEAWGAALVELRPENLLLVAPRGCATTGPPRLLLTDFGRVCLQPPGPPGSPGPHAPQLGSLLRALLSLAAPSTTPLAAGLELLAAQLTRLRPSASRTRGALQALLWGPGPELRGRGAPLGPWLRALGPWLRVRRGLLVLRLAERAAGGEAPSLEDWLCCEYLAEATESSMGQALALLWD

[5] = biological target: PEAK3 tandem-pS69 : 14-3-3γ (K50E) complex (human); assay: ITC; ternary; CrkII NSH3 in the syringe titrated into the peptide:14-3-3γ complex left in the cell (16.8 µM) after the first titration; 25 °C, 20 mM HEPES pH 7.4, 150 mM NaCl, 1 mM TCEP; single binding site model
[6] = biological target: PEAK3^(tandem, 54–74)pS69:14-3-3γ complex (human); assay: ITC; ternary, sequential; CrkII^NSH3 (400 μM, syringe) titrated into the peptide (16.8 µM) left in the cell after a first titration with 14-3-3ɣ; 25 °C, 20 mM HEPES pH 7.4, 150 mM NaCl, 1 mM TCEP
[7] = biological target: PEAK1^IDR1 (residues 1082-1746), from insect cells, phosphorylated by Src (human) (UniProt Q9H792); assay: SPR; biotinylated PEAK proteins (with or without Src phosphorylation) captured with a biotin CAPture kit; Grb2 FL, Grb2 SH2, CrkII SH2, CrkII FL monomer or dimer as analytes; Biacore 8K+, 20 °C, HBS-TP with NaCl raised to 500 mM; 1 M NaCl regeneration; steady state
Chain of PEAK1^IDR1 (residues 1082-1746), from insect cells, phosphorylated by Src (human) (Q9H792 1082-1746): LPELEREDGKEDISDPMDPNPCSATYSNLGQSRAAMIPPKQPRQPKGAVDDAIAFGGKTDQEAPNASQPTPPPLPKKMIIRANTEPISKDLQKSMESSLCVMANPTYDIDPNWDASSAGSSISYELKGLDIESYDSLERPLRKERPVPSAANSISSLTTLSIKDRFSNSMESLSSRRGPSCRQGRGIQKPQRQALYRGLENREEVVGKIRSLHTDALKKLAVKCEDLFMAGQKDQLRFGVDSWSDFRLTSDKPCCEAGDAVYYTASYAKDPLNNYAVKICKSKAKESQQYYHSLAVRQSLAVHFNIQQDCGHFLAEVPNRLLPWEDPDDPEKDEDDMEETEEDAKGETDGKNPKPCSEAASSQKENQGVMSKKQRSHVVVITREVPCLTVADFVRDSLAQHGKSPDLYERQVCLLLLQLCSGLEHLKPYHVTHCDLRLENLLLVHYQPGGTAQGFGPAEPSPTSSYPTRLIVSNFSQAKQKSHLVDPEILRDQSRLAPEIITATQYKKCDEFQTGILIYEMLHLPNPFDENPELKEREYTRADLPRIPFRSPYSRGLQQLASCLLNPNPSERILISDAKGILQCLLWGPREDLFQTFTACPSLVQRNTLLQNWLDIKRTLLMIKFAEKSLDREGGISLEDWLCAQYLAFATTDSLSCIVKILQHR

[8] = biological target: PEAK2^IDR1 (residues 802-1406), from insect cells, phosphorylated by Src (human) (UniProt Q86YV5); assay: as above
Chain of PEAK2^IDR1 (residues 802-1406), from insect cells, phosphorylated by Src (human) (Q86YV5 802-1406): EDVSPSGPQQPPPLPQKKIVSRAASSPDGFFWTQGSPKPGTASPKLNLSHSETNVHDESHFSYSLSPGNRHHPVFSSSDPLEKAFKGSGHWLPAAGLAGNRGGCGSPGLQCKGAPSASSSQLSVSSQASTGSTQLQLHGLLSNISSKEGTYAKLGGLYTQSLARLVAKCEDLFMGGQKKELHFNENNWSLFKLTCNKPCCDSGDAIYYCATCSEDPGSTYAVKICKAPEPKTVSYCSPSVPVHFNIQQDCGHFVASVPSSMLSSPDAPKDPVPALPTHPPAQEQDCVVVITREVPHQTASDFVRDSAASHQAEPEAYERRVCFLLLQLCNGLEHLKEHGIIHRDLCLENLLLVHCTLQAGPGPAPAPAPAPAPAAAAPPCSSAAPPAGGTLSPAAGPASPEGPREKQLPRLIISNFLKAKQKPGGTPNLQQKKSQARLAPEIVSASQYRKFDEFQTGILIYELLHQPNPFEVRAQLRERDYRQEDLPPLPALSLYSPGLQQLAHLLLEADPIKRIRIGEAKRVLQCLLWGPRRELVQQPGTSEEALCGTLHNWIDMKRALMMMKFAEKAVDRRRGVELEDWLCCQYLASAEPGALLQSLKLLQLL

[9] = biological target: full length PEAK3 (PEAK3^FL, residues 1-473), from insect cells, phosphorylated by Src (human) (UniProt Q6ZS72); assay: as above
Chain of full length PEAK3 (PEAK3^FL, residues 1-473), from insect cells, phosphorylated by Src (human) (Q6ZS72 whole entry, the tested form may be a part): as the sequence (Q6ZS72 whole entry, looked up, tested part not stated) above

[10] = biological target: 14-3-3γ 1-247 (UniProt P61981); assay: SPR, immobilized 14-3-3γ; conditions: reference: non-phosphorylated PEAK1tandem peptide; sites T1165
[11] = biological target: 14-3-3ε 1-255 (UniProt P62258); assay: SPR, immobilized 14-3-3ε
[12] = biological target: 14-3-3η 1-246 (UniProt Q04917); assay: SPR, immobilized 14-3-3η
[13] = biological target: 14-3-3σ (Methods: 14-3-3ς, with an accession that is 14-3-3ζ) 1-245; assay: SPR, immobilized 14-3-3σ
[14] = biological target: 14-3-3ε (residues 1-255) (human) (UniProt P62258); assay: SPR; 14-3-3 isoforms amine coupled to a CM5 chip, tandem peptides as analytes (10 µM-10 nM for PEAK3 tandem-pS69, 20 µM-20 nM for all others); Biacore S200, 20 °C, HBS-TP; steady state, 1:1 model
Chain of 14-3-3ε (residues 1-255) (human) (P62258 whole entry, the tested form may be a part, canonical isoform): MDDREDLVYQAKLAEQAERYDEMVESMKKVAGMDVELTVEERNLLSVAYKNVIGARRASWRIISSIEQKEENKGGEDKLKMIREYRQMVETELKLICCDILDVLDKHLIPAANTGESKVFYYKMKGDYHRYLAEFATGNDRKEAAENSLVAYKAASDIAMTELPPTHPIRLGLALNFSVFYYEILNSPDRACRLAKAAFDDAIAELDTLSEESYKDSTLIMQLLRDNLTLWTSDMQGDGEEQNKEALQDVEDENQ

[15] = biological target: 14-3-3γ (residues 1-247) (human); assay: as above
[16] = biological target: 14-3-3η (residues 1-246) (human); assay: as above
[17] = biological target: 14-3-3γ (human); assay: SPR; Biacore S200; 14-3-3 isoforms amine coupled to CM5, peptides injected (10 µM–10 nM for PEAK3^tandem-pS69, 20 µM–20 nM for other peptides); 20 °C, HBS-TP; steady-state 1:1 fit
[18] = biological target: PEAK2^IDR1 (human PEAK2 residues 802–1406) (human) (UniProt Q86YV5); assay: SEC-MALS; purified PEAK2^IDR1:CrkII^FL dimer complex (170 μg), Superdex 200 Increase 10/300, 20 mM HEPES pH 7.5, 150 mM NaCl, 1 mM TCEP
Chain of PEAK2^IDR1 (human PEAK2 residues 802–1406) (human) (Q86YV5 802-1406): as the sequence (Q86YV5 802-1406) above

[19] = biological target: full length CrkII, dimer (CrkII^FL dimer) (human) (UniProt P46108); assay: SEC; single purified proteins on Superdex 200 (purification and re-runs), 20 mM HEPES pH 7.5–8.5, 150 mM NaCl, 1 mM TCEP; oligomeric state
[20] = biological target: PEAK1^IDR1 (residues 1082-1746), from insect cells (human) (UniProt Q9H792); assay: SPR; biotinylated PEAK proteins (with or without Src phosphorylation) captured with a biotin CAPture kit; Grb2 FL, Grb2 SH2, CrkII SH2, CrkII FL monomer or dimer as analytes; Biacore 8K+, 20 °C, HBS-TP with NaCl raised to 500 mM; 1 M NaCl regeneration; steady state
Chain of PEAK1^IDR1 (residues 1082-1746), from insect cells (human) (Q9H792 1082-1746): as the sequence (Q9H792 1082-1746) above

[21] = reference: non-phosphorylated PEAK1tandem peptide, sites T1165
[22] = reference: non-phosphorylated PEAK3tandem peptide, sites S69

Chain of PEAK2 tandem peptide, non-phosphorylated (residues 812-831) (peptide): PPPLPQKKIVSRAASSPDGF

- Kd [1]: 5.99 µM
- stoichiometry N [1]: 0.726
Substance: 14-3-3γ (gamma) (K50E) (natural protein)

- Kd [2]: 0.126 µM
- Kd [3]: 0.13 µM
Substance: 14-3-3γ (natural protein)

Substance: CrkII (from UniProt P46108)
- Kd [4]: 7.8 µM

- Kd [5]: 3.26 µM
- stoichiometry N [5]: 0.69
Substance: CrkII N-terminal SH3 domain (CrkII^NSH3, residues 134-191) (from UniProt P46108-1 134-191) (domain or fragment)

- Kd [6]: 3.6 µM
Substance: CrkII NSH3 domain (CrkII^NSH3, residues 134–191) (from UniProt P46108-1 134-191) (domain or fragment)

- Kd [7]: 12.5 µM
- Kd [8]: 21 µM
- Kd [9]: 48 µM
Substance: CrkII SH2 domain (CrkII^SH2, residues 6-120) (from UniProt P46108-1 6-120) (domain or fragment)

- binding against the reference [10]: stronger
- binding against the reference [11, 21]: stronger
- binding against the reference [12, 21]: stronger
- binding against the reference [13, 21]: stronger
Substance: PEAK1 1152-1171 (from UniProt Q9H792) PEAK1tandem-pT1165 peptide

- Kd [14]: > 100 µM
Substance: PEAK1 tandem peptide, non-phosphorylated (residues 1152-1171)

- Kd [14]: 5.39 µM
Substance: PEAK1 tandem-pT1165 peptide (residues 1152-1171)

- Kd [15]: > 100 µM
- Kd [14]: > 100 µM
- Kd [16]: > 100 µM
Substance: PEAK2 tandem peptide, non-phosphorylated (residues 812-831)

- Kd [15]: 1.35 µM
- Kd [14]: 7.42 µM
- Kd [16]: 1.94 µM
Substance: PEAK2 tandem-pS826 peptide (residues 812-831)

- binding against the reference [11, 22]: stronger
- binding against the reference [12, 22]: stronger
- binding against the reference [13, 22]: stronger
Substance: PEAK3 54-74 (from UniProt Q6ZS72) PEAK3tandem-pS69 peptide

- Kd [14]: > 100 µM
Substance: PEAK3 tandem peptide, non-phosphorylated (residues 54-74)

- Kd [14]: 0.78 µM
Substance: PEAK3 tandem-pS69 peptide (residues 54-74)

- Kd [17]: > 10 µM
Substance: PEAK3^tandem peptide, non-phosphorylated (residues 54–74; Ac-…-NH2)

- stoichiometry N (CrkII chains per PEAK2 chain (2:2)) [18]: 1
- percent of the isolated protein that is dimer [19]: 10%
Substance: full length CrkII, dimer (CrkII^FL dimer) (from UniProt P46108-1 1-304) (natural protein)

- Kd [20]: > 50 µM
- Kd [7]: 4.3 µM
Substance: full length Grb2 (Grb2^FL, residues 1-217) (from UniProt P62993-1 1-217) (natural protein)
